The target in this test is His-tagged full-length p53 (UniProt P04637 1-393). Description: co-IP.
Sequence of His-tagged full-length p53 (P04637 whole entry): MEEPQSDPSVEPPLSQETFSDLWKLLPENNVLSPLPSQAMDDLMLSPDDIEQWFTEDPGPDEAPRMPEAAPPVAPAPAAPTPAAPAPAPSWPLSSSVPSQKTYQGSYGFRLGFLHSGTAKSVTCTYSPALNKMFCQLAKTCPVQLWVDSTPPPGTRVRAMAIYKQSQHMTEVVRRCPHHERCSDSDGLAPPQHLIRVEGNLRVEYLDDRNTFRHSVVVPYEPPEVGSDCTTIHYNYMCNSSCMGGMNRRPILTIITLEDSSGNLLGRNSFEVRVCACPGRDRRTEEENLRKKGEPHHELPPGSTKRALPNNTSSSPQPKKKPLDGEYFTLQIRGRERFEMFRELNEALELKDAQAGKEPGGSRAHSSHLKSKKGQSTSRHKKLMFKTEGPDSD

B1: His-tagged minimal-binding region of Dmp1 for p53 (M14: amino acids 87–224) (domain or fragment, UniProt Q8CE22 87-224, looked up)
chain: VTMTATTEVADDELSEGTVTQIQILQNDQLDEISPLGTEEVSAVSQAWFTTKEDKDSLTNKGHKWKQGMWSKEEIDILMNNIERYLKARGIKDATEIIFEMSKDERKDFYRTIAWGLNRPLFAVYRRVLRMYDDRNHV
With B1, the binding result is “binds”.
